In the supplement of paper PMC6755084 one finds fraction ligated data, which are given here for 97 sequences.

In this data set the test system is F1*sub RNA substrate (template-directed ligation). As to the kind of experiment: fraction ligated after 30 min (ligated reads / total reads); higher = more ligase activity; sequences stand for … in GAGACCGCAACTGAAAAGTTGT…AGTTCTGCACGTAGAAGCAAAAGGC
Particulars: 42 °C. In outline: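 Oligo-pool templates underwent PCR amplification, T7 transcription and gel purification to yield ribozyme variants. Gel-separated ligated and unligated bands were converted to complementary DNA with barcoded primers and sequenced on a MiSeq, keeping core bases of quality ≥20. The ratio of ligated reads to total reads gave the fraction ligated for every variant.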
In the case of “TATCACTTTCGAAGACACTTTGGTGGGTTGA [3d1501]”, the fraction ligated is 0.0423.
The result for “TATCACTGTGTAAGACACTTTGATGGGTTGA [3d1352]” reads 0.355.
“TATCATTGCGTAAGACCTTTGGATGGGTTGA [3d1163]” displayed a fraction ligated of 0.815.
Turning to ATCACTTGTCGAAGACACTTTGATGGGTTGA [3d192], the fraction ligated amounted to 0.655.
The result for TATACTTGTCGTAGCACTTTGGATGGGTTGA [3d872] reads 0.787; that for TTCATTGTCGTAAGCACTTTGGATGGGTTGA [3d325], 0.176; that for TATATTGTCGTAAGACCTTTGGATGGGTTGA [3d768], 0.468.
Take TTCACTTGTCTAAGCACTTTGGATGGGTTGA [3d405]: the fraction ligated is 0.67.
TATCCTTTCGTAAGACACTTTGGTGGGTTGA [3d979] had a fraction ligated of 0.0729.
Sequence TACACTTGTCGTAAGCACTTGGATGGGTTGA [3d685] gave a fraction ligated of 0.0451.
For “TATCATTGTCTAAGCACTTTGGATGGGTTGA [3d1190]”, the fraction ligated worked out at 0.765.
“TATCACTTGTCGAAACACTTTGGTGGGTTGA [3d1920]” showed a fraction ligated of 0.0386.
TTCACTTGTCTAGACACTTTGGATGGGTTGA [3d403] gave a fraction ligated of 0.703.
The result for “TATCACTGTCGTAAACACTTTGGATGGGTTG [3d1407]” reads 0.83.
TATACTTGTCGTAAGACACTGGATGGGTTGA [3d925] showed a fraction ligated of 0.74.
In the case of TATACTTGTCGTAAGCATTTGGATGGGTTGA [3d895], the fraction ligated was determined as 0.747.
In the case of TATACTTGTCGTAAGACACTTTGTGGGTTGA [3d933], the fraction ligated is 0.0152.
Consider “TATCATTTGTAAGACACTTTGGATGGGTTGA [3d1140]”, for which the fraction ligated was found to be 0.803.
“TATCACTTGGTAAGACACTTTGGATGGGTTA [3d1597]” registered a fraction ligated of 0.733.
Take “TATCACGTCGTAAGCACTTTGGATGGGTTGA [3d1300]”: the fraction ligated was found to be 0.768.
Sequence “TATCACTTGTCGTGACACTTGGATGGGTTGA [3d1986]” showed a fraction ligated of 0.779.
“TATCATTGTCGTAAACACTTTGGTGGGTTGA [3d1232]” yielded a fraction ligated of 0.0641.
The figure for “TATCATTTCGTAAGACACTTGGATGGGTTGA [3d1149]” is 0.763; for “TATCACTTGTCGTAAGACTTTGATGGGTTGA [3d2108]” it is 0.76.
In the case of “TATCACTTGTCTAAGACACTTTGGAGGTTGA [3d1895]”, the fraction ligated stood at 0.095.
“TATCACTTTCGTAAGACACTTTGAGGGTTGA [3d1570]” showed a fraction ligated of 0.0593.
The figure for TTCACTTGTCGTAAGACATTTGATGGGTTGA [3d478] is 0.0347; for TTCACTTGCGAAGACACTTTGGATGGGTTGA [3d373] it is 0.702.
“TATCACTTTCGTAAGACACTTGGTGGGTTGA [3d1563]” yielded a fraction ligated of 0.171.
Sequence TATACTTGTCTAAGACACTTTGATGGGTTGA [3d851] yielded a fraction ligated of 0.719.
The sequence “TATCACTTGTCTAGACACTTTGGATGGTTGA [3d1833]” had a fraction ligated of 0.361.
In turn, “TATCCTTGTGTAAGACCTTTGGATGGGTTGA [3d1006]” came in with a fraction ligated of 0.801.
The sequence TTCACTTGTCGAAGACATTTGGATGGGTTGA [3d421] yielded a fraction ligated of 0.79.
ATCACTTGTGTAAGACACTTTGGATGGGTTG [3d170] displayed a fraction ligated of 0.838.
The figure for “TATCACTTGTCGAGACACTTTGGATGGGTTA [3d1913]” is 0.765.
With TTCACTGTCGTAAGACACTTTGGATGGGTTA [3d353], the fraction ligated was found to be 0.195.
The figure for ATCACTTGTCGTAAGACACTTTGGATGGGTTG [2d24] is 0.769; for “TATCACTTGTCGTAGACACTTTGGATGGGTTG [2d233]” it is 0.843.
For “TATCACTTTCTAAGACACTTTGGAGGGTTGA [3d1489]”, the fraction ligated is 0.026.
The result for “TATCACTTGTCTAAGACACTTGGTGGGTTGA [3d1880]” reads 0.113.
“TATCATTTCGTAAGACACTTTGGATGGGTTGA [2d110]” came in with a fraction ligated of 0.807.
For the sequence “TATCACTTGTCGTAAGACACTTTGATGGTTA [3d2267]”, the fraction ligated turned out to be 0.00859.
As for “TATCACTTGTCGTGACACTTTGGATGGGTTG [3d1992]”, the fraction ligated was 0.826.
The figure for “TATCATTGTCTAAGACACTTTGGATGGTTGA [3d1198]” is 0.169; for “TATCACTTGCGAAGACACTTTGATGGGTTGA [3d1620]” it is 0.77; for “TATCACTTGTGTAAGCACTTTGATGGGTTGA [3d1758]” it is 0.811.
Take TACACTTGTCGTAAGACACTTTGGTGGGTTG [3d730]: the fraction ligated was 0.035.
Turning to “TATCACTGTCGTAAGACCTTTGGATGGTTGA [3d1430]”, the fraction ligated stood at 0.628.
Sequence “TATCACTTGGTAAGAACTTTGGATGGGTTGA [3d1589]” gave a fraction ligated of 0.804.
Regarding TATACTTGTCGTAAGACATTGGATGGGTTGA [3d918], the fraction ligated worked out at 0.786.
In the case of “TATCCTTGTCGTAAGCACTTTGGTGGGTTGA [3d1070]”, the fraction ligated was found to be 0.0868.
The figure for TACACTTGCGTAAGACACTTTGGTGGGTTGA [3d612] is 0.0235; for “TATCACTTGTCGTAGAACTTTGGATGGGTTA [3d2019]” it is 0.854.
ATACTTGTCGTAAACACTTTGGATGGGTTGA [3d55]: the fraction ligated is 0.112.
The figure for “TATCACTTGTCGAAGCACTTTGATGGGTTGA [3d1929]” is 0.736; for TACACTTTCGTAAGCACTTTGGATGGGTTGA [3d590] it is 0.0355.
The result for “TATCATTGTCTAAGACACTTTGGATGGGTTG [3d1200]” reads 0.769.
In the case of TATACTGTCGTAAGACACTTTGGAGGGTTGA [3d792], the fraction ligated amounted to 0.042.
The result for “TATCATTGTCGAAGACACTTTGGAGGGTTGA [3d1210]” reads 0.0625.
The result for “TATCCTTGTCTAAGAACTTTGGATGGGTTGA [3d1019]” reads 0.764; that for “TATCACTTTCGTAAGACATTTGGAGGGTTGA [3d1557]”, 0.0972; that for “TATCACTTGTCGTAAGAACTTTGGAGGGTTG [3d2178]”, 0.0318.
ATCACTTGTCGTAAGACACTTTGATGGGTTGA [2d19] had a fraction ligated of 0.702.
ATCACTTGTCGTAGACACTTTGGATGGGTTGA [2d12] registered a fraction ligated of 0.789.
“TATCACTTGTCGTAGACACTTTGTGGGTTGA [3d2043]”: the fraction ligated was determined as 0.0334.
For the sequence “TATCACTTGTCTAAGACACTTTATGGGTTGA [3d1885]”, the fraction ligated was 0.171.
The figure for TTCATTGTCGTAAGACATTTGGATGGGTTGA [3d328] is 0.5.
For “TATCACTTGTCGTAAGACACTTGGATGGGTT [3d2253]”, the fraction ligated worked out at 0.239.
The sequence TACACTTGTCGTAAGACACTGGATGGGTTGA [3d714] registered a fraction ligated of 0.191.
The figure for ATACTTGTCTAAGACACTTTGGATGGGTTGA [3d52] is 0.24; for ATCACTTGTCGAAGACACTTTGGATGGGTTA [3d196] it is 0.707.
TATACTTGTCGTAAGCCTTTGGATGGGTTGA [3d894] yielded a fraction ligated of 0.68.
The figure for “TATCACTGTCGTAAACACTTTGGAGGGTTGA [3d1404]” is 0.0511; for “TATCCTTGTCGTAAGACACTTGGATGGGTTA [3d1102]” it is 0.402.
For the sequence TTCACTTGTCGAAGACACTTTGGATGGGTTGA [2d33], the fraction ligated worked out at 0.775.
The result for “TATCACTTGTCGTAGCACTTGGATGGGTTGA [3d2006]” reads 0.741; that for TTCACTTTCGTAAGACACTTTGGATGGGTTG [3d370], 0.184.
Turning to “TATCACTTGTCTAAGACACTTTGGATGGTTG [3d1899]”, the fraction ligated stood at 0.408.
In the case of TACACTTGTGTAAGACACTTTGGATGGTTGA [3d629], the fraction ligated is 0.141.
The figure for “TATCACTTGTCGTAAGACACTTTGTGGGTTA [3d2262]” is 0.00904.
With “TATCACTTGTCGTAAGACACTTGGATGGTTG [3d2252]”, the fraction ligated is 0.036.
TACACTTGTCGAAGACACTTTGGATGGGTTGA [2d55] displayed a fraction ligated of 0.603.
With “TATCACTTGTGAAGCACTTTGGATGGGTTGA [3d1720]”, the fraction ligated was 0.845.
On to TATCCTTTCGTAAGAACTTTGGATGGGTTGA [3d974], for which the fraction ligated was determined as 0.797.
In the case of “TATCACTTGTCTAAGACATTTGGAGGGTTGA [3d1874]”, the fraction ligated stood at 0.0252.
The result for “TATCACTGTCTAAGACACTTTGGAGGGTTGA [3d1368]” reads 0.102; that for “TATCACTTGTGTAAGACTTTGGATGGGTTGA [3d1754]”, 0.868; that for ATCACTTGTCGTAAGAACTTTGGAGGGTTGA [3d235], 0.0738.
In the case of “TATCACTTGCGAAGACACTTTGGATGGTTGA [3d1623]”, the fraction ligated was determined as 0.248.
The sequence TATCCTTGCGAAGACACTTTGGATGGGTTGA [3d986] gave a fraction ligated of 0.806.
The result for TATACTTGTCGTAAGACACTTTGGATGGGTTA [2d88] reads 0.0592; that for “TATCACTTGTGTAGAACTTTGGATGGGTTGA [3d1734]”, 0.822; that for “TATCATTGTCGTAAGACACTTTGATGGGTTG [3d1281]”, 0.765.
“TATCACTTGTCGTAAGACATTTGGATGGTTG [3d2228]” showed a fraction ligated of 0.0492.
Regarding “TATCCTTGTCGTAAGACCTTTGATGGGTTGA [3d1084]”, the fraction ligated was 0.762.
The figure for “TATCACTTGCTAAGACACTTTGGATGGTTGA [3d1610]” is 0.351; for TTCACTTGTCTAAACACTTTGGATGGGTTGA [3d404] it is 0.719.
